Columns and labels:
[1] = system: COc1ccc([C@H]2COc3cc(O)ccc3[C@@H]2O)c(O)c1; test: medicarpin formation, chiral HPLC (RU-2); assay type: biochemical, Glycyrrhiza echinata; settings: 0.1 M sodium phosphate pH 6.6, 30 °C, 5 min, BSA, racemic trans-DMI supplied
Description: (§1) medicarpin formation, chiral HPLC (RU-2) on GePTS1

[2] = system: COc1ccc([C@@H]2COc3cc(O)ccc3[C@@H]2O)c(O)c1; test: medicarpin formation, chiral HPLC (RU-2); assay type: biochemical, Glycyrrhiza echinata; settings: 0.1 M sodium phosphate pH 6.6, 30 °C, 5 min, BSA, racemic cis-DMI supplied
Description: as §1

[3] = system: COc1ccc([C@H]2COc3cc(O)ccc3[C@@H]2O)c(O)c1; test: purified protein; settings: 0.1 M sodium phosphate pH 6.6, 30 °C, 5 min, BSA, racemic trans-DMI supplied, kinetics calculated on (3S,4R) conversion
[4] = system: COc1ccc([C@@H]2COc3cc(O)ccc3[C@@H]2O)c(O)c1; test: purified protein; settings: 0.1 M sodium phosphate pH 6.6, 30 °C, 5 min, BSA, racemic cis-DMI supplied, kinetics calculated on (3R,4R) conversion
[5] = kinetics calculated on (3S,4R) conversion
[6] = kinetics calculated on (3R,4R) conversion
[7] = (3S,4R) converted, pET100 construct
[8] = (3R,4R) converted, pET100 construct

| Substance | Km [1, 7] | kcat [1, 7] [s⁻¹] | kcat/Km [1, 7] [M⁻¹ s⁻¹] | Km [2, 8] | kcat [2, 8] [s⁻¹] | kcat/Km [2, 8] [M⁻¹ s⁻¹] | further results |
| --- | --- | --- | --- | --- | --- | --- | --- |
| GePTS1 (Glycyrrhiza echinata) | – | – | – | – | – | – | Km [1, 5]: 680 µM; kcat [1, 5]: 15.9 s⁻¹; kcat/Km [1, 5]: 23400 M⁻¹ s⁻¹; Km [2, 6]: 145 µM; kcat [2, 6]: 59.9 s⁻¹; kcat/Km [2, 6]: 413000 M⁻¹ s⁻¹ |
| GePTS1 (Glycyrrhiza echinata; D50A) | 520 µM | 0.2 | 370 | 1,175 μM | 4.9 | 4180 | – |
| GePTS1 (Glycyrrhiza echinata; D83A) | 665 µM | 1.3 | 1960 | 1,300 μM | 6.3 | 4870 | – |
| GePTS1 (Glycyrrhiza echinata; Y103F) | 3,320 μM | 5.9 | 1830 | 555 µM | 6.9 | 12300 | – |
| GePTS1 (Glycyrrhiza echinata; Y181F) | 5,665 μM | 4 | 710 | 825 µM | 5.2 | 6310 | – |
| PsPTS1 (Lathyrus oleraceus) | – | – | – | – | – | – | Km [3]: 830 µM; kcat [3]: 3.3 s⁻¹; kcat/Km [3]: 3930 M⁻¹ s⁻¹; Km [4]: 890 µM; kcat [4]: 50.5 s⁻¹; kcat/Km [4]: 56800 M⁻¹ s⁻¹ |
